The supplement of paper PMC10126150
± gives the standard deviation of the averaged measurements.

test system: ATP; test: switch fluorescence ratio, 500 uM ATP over buffer (Cy3 cluster intensity, sum of 5 cycles each) (fold (ratio)); higher = stronger signal-on switching upon ATP binding; sequences stand for … in TCGTCGGCAGCGTCAGATGTGTATAAGAGACAGTTTTTTTTTTTTTTTTTTTTTTTTT…TC; details: aptamer strand: ATP DNA aptamer (quencher-CACCTGGGGGAGTATTGCGGAGGAAGG + anchor), 100 nM annealed; ATP concentration: 500 uM
Procedure, shortened: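 Five buffer/ATP imaging cycles were run on Cy3-labelled switching-strand clusters on a modified Illumina MiSeq flow-cell, with NaOH stripping and re-annealing between cycles. In each cycle, clusters annealed to 100 nM quencher-labelled ATP aptamer were imaged in selection buffer, then after 15 min with 500 uM ATP at 22 °C. Per cluster, the fluorescence ratio is summed target-cycle over summed buffer-cycle Cy3 intensity, averaged per switch-domain sequence. Only clusters within 100-1000 RFU were kept.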
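Also: ATP exposure 15 min at 22 °C before imaging.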

AGTTATACAC and AGTTATATTG are within error of each other in switch fluorescence ratio: 1.014 ± 0.0099 for the first, 0.997 ± 0.07 for the second.

AGTTATCGAC and AGTTATCTTA are within error of each other in switch fluorescence ratio: 1.01 ± 0.021 for the first, 1.02 ± 0.011 for the second.

AGTTATGAGT and AGTTATGGGG are within error of each other in switch fluorescence ratio: 1.01 ± 0.054 for the first, 1 ± 0.032 for the second.

First: AGTTATTTCG
Second: AGTTCAAGCT
The switch fluorescence ratio of the first is lower: 0.993 ± 0.018 for the first, 1.02 ± 0.007 for the second.

AGTTCAGGGC and AGTTCCAAAA are within error of each other in switch fluorescence ratio: 1.003 ± 0.004 for the first, 1.07 ± 0.1 for the second.

First: AGTTCCATTT
Second: AGTTCGCTAA
The switch fluorescence ratio of the first is lower: 0.97 ± 0.028 for the first, 1.012 ± 0.003 for the second.

AGTTCGGCTA and AGTTCGGGAG are within error of each other in switch fluorescence ratio: 0.998 ± 0.036 for the first, 0.99 ± 0.013 for the second.

Compared with AGTTCGGTGG, AGTTCGTAAA is higher in switch fluorescence ratio: 0.962 ± 0.0022 for the first, 1.02 ± 0.029 for the second.

AGTTGAGAGA and AGTTGAGTTT are within error of each other in switch fluorescence ratio: 1.01 ± 0.018 for the first, 0.992 ± 0.026 for the second.

AGTTGCCAGC and AGTTGCTTCG are within error of each other in switch fluorescence ratio: 0.994 ± 0.01 for the first, 0.975 ± 0.026 for the second.

Going from AGTTGGACGC to AGTTGGGGCG, the switch fluorescence ratio falls from 1.07 ± 0.021 to 1.01 ± 0.039.

AGTTGGGGGC and AGTTGGGTTG are the same in switch fluorescence ratio: 1 ± 0.079 for the first, 1 ± 0.023 for the second.

Compared with AGTTGGTCCT, AGTTGTACTA is lower in switch fluorescence ratio: 1.01 ± 0.017 for the first, 0.9633 ± 0.0046 for the second.

AGTTGTAGTT and AGTTGTGTCG are within error of each other in switch fluorescence ratio: 0.972 ± 0.041 for the first, 0.955 ± 0.02 for the second.

AGTTTAAGTG and AGTTTAATTA are within error of each other in switch fluorescence ratio: 1.01 ± 0.013 for the first, 0.971 ± 0.051 for the second.

AGTTTATAAT and AGTTTATCAT are within error of each other in switch fluorescence ratio: 0.982 ± 0.023 for the first, 0.9996 ± 0.0089 for the second.

AGTTTATTAC and AGTTTCTACG are within error of each other in switch fluorescence ratio: 1.47 ± 0.68 for the first, 0.994 ± 0.015 for the second.

AGTTTCTGTG and AGTTTGAAAG are within error of each other in switch fluorescence ratio: 0.968 ± 0.059 for the first, 1.01 ± 0.017 for the second.

AGTTTGCTCG and AGTTTGGCAC are within error of each other in switch fluorescence ratio: 0.971 ± 0.093 for the first, 1.05 ± 0.057 for the second.

AGTTTGGCAT and AGTTTGGTTC are within error of each other in switch fluorescence ratio: 0.9958 ± 0.0071 for the first, 0.9876 ± 0.0078 for the second.

AGTTTGTCTG and AGTTTTAGCT are within error of each other in switch fluorescence ratio: 0.9665 ± 0.007 for the first, 0.984 ± 0.029 for the second.

AGTTTTGAAA and AGTTTTGCCT are within error of each other in switch fluorescence ratio: 0.9909 ± 0.0021 for the first, 0.981 ± 0.032 for the second.

Going from AGTTTTGGCA to AGTTTTGTGC, the switch fluorescence ratio falls from 1.03 ± 0.015 to 1.005 ± 0.0017.

AGTTTTGTTT and AGTTTTTAGA are within error of each other in switch fluorescence ratio: 1.01 ± 0.02 for the first, 1.03 ± 0.033 for the second.

AGTTTTTAGC and AGTTTTTAGG are within error of each other in switch fluorescence ratio: 1.01 ± 0.047 for the first, 0.99 ± 0.024 for the second.

AGTTTTTGGC and AGTTTTTTAG are within error of each other in switch fluorescence ratio: 0.999 ± 0.021 for the first, 0.98 ± 0.015 for the second.

ATAAAAGTCT and ATAAACTAGA are within error of each other in switch fluorescence ratio: 1.03 ± 0.032 for the first, 1.01 ± 0.019 for the second.

ATAAAGACGT and ATAAAGAGGC are within error of each other in switch fluorescence ratio: 1.02 ± 0.037 for the first, 0.978 ± 0.066 for the second.

ATAAAGTGGA and ATAAAGTTGG are within error of each other in switch fluorescence ratio: 0.984 ± 0.044 for the first, 0.991 ± 0.0075 for the second.

ATAAATGCGG and ATAAATGTCA are within error of each other in switch fluorescence ratio: 1.02 ± 0.041 for the first, 1.01 ± 0.026 for the second.

ATAAATTAGT and ATAAATTTGT are within error of each other in switch fluorescence ratio: 0.998 ± 0.018 for the first, 0.967 ± 0.019 for the second.

First: ATAACAGGTA
Second: ATAACATTAG
The switch fluorescence ratio of the first is higher: 1.009 ± 0.005 for the first, 0.9984 ± 0.0069 for the second.

ATAACGGGAT and ATAACTGTAT are within error of each other in switch fluorescence ratio: 1.26 ± 0.42 for the first, 1.122 ± 0.0049 for the second.

ATAACTTGGG and ATAAGAAATA are within error of each other in switch fluorescence ratio: 0.994 ± 0.041 for the first, 0.996 ± 0.027 for the second.

ATAAGAGGGT and ATAAGATTGC are within error of each other in switch fluorescence ratio: 0.976 ± 0.049 for the first, 0.991 ± 0.042 for the second.

First: ATAAGCCCGT
Second: ATAAGCGTCG
The switch fluorescence ratio of the first is lower: 0.976 ± 0.014 for the first, 1.02 ± 0.013 for the second.

Compared with ATAAGCTTGC, ATAAGGAAGT is lower in switch fluorescence ratio: 1.128 ± 0.0064 for the first, 1.02 ± 0.028 for the second.

ATAAGGCCCG and ATAAGGCGGG are within error of each other in switch fluorescence ratio: 1.04 ± 0.078 for the first, 0.971 ± 0.031 for the second.

ATAAGGGAGG and ATAAGGGCTA are within error of each other in switch fluorescence ratio: 0.979 ± 0.022 for the first, 0.99 ± 0.031 for the second.

ATAAGGGGTA and ATAAGGGTTT are within error of each other in switch fluorescence ratio: 0.98 ± 0.019 for the first, 0.9905 ± 0.0095 for the second.

ATAAGGTACG and ATAAGGTTGG are within error of each other in switch fluorescence ratio: 1.05 ± 0.077 for the first, 0.988 ± 0.029 for the second.

ATAAGTATGT and ATAAGTGAAA are within error of each other in switch fluorescence ratio: 1 ± 0.018 for the first, 1.07 ± 0.15 for the second.

First: ATAAGTGAAT
Second: ATAAGTGTTG
The switch fluorescence ratio of the first is higher: 1.01 ± 0.013 for the first, 0.979 ± 0.017 for the second.

ATAAGTTTTT and ATAATAGGGC are the same in switch fluorescence ratio: 1 ± 0.023 for the first, 1 ± 0.015 for the second.

ATAATCGGTG and ATAATGGGCG are within error of each other in switch fluorescence ratio: 0.981 ± 0.041 for the first, 0.995 ± 0.058 for the second.

ATAATGGGGA and ATAATGGGGG are within error of each other in switch fluorescence ratio: 1 ± 0.018 for the first, 0.977 ± 0.027 for the second.

ATAATGGTTT and ATAATGTCGA are within error of each other in switch fluorescence ratio: 0.987 ± 0.056 for the first, 1.02 ± 0.026 for the second.

ATAATTGAAG and ATAATTGGTG are within error of each other in switch fluorescence ratio: 0.99 ± 0.027 for the first, 1.03 ± 0.018 for the second.

ATAATTTCGG and ATAATTTGAT are within error of each other in switch fluorescence ratio: 1.01 ± 0.026 for the first, 0.983 ± 0.023 for the second.

Compared with ATACACGGCG, ATACAGCGA is higher in switch fluorescence ratio: 1.045 ± 0.0087 for the first, 1.066 ± 0.01 for the second.
